Reference: US20230227838A1, “ENHANCED CELL SURVIVAL AGAINST BIOTIC AND ABIOTIC STRESSES THROUGH SALICYLICK ACID-INDUCED NPR1 CONDENSATES” (priority 2020, published 2023)

Key:
[1] = tested on: CUL3; assay: Co-IP of Myc-CUL3 with HA-fused NPR1 or variants; format: binding, Arabidopsis thaliana
Experimental: (§1) Plant transformation: For plant transformations, the Agrobacterium tumefaciens strain GV3101 was transformed with plant binary vectors carrying the indicated transgenes. For stable expression in Arabidopsis, a floral dipping method was used. For transient expression in N benthamiana, the Agrobacterium carrying the indicated construct was cultured overnight at 28° C. in Luria-Bertani (LB) broth medium supplemented with appropriate antibiotics: spectinomycin (100 μg/ml), kanamycin (50 μg/ml), gentamycin (50 μg/ml), and rifampicin (25 μg/ml). The obtained culture was re-inoculated at 1:10 into fresh growth media with antibiotics and grown for another 4 hr. Cells were then spun down at 1,600 g for 10 min, and inoculum was prepared by resuspending cells to OD600 nm=1 in double distilled water (DDW) containing 200 μM acetosyringone (Sigma). Unless otherwise stated, for co-IP, co-localization, and BiFC assays in N. benthamiana, the proteins were co-expressed at 1:1 mixture of the relevant Agrobacteria inoculums. In all BiFC assays, the pair of YN/YC fusions was co-expressed together with free mCherry to mark the cytoplasm and nucleus, mCherry-NLS to mark the nucleus only, or mCherry-fused test proteins for co-localization analysis. The inoculum was pressure infiltrated into N. benthamiana leaves at the abaxial side using 1 ml syringe without the needle. Due to low overall levels of NPR1-GFP in transgenic plants, a transient expression assay in Arabidopsis seedlings was used to monitor NPR1-GFP subcellular localization after SA treatment (FIG. 2B). To limit the imaging time in this transient assay (2 hours), a higher baseline SA concentration had to be used. Seeds of WT (Col-0) Arabidopsis were germinated on solid half-strength Murashige and Skoog (1/2 MS) medium and grown for 4 days. Agrobacterium carrying the indicated constructs was grown overnight in LB medium supplemented with appropriate antibiotics. The obtained culture was re-inoculated at 1:10 into virulence induction medium [50.78 mM MES, 0.5% Glucose, 1.734 mM NaH2PO4, 5% of 20X-AB mix (373.9 mM NH4C1, 24.34 mM MgSO4, 40.23 mM KCl, 1.36 mM CaCl2 and 0.18 mM FeSO4·7H2O), 200 μM acetosyringone] supplemented with 25 μg/ml rifampicin and grown for another 24 hr at 28° C. to OD600=0.8 (inoculum). Seedlings were vacuum-infiltrated with the inoculum, and at 48 hpi (hours post inoculation), treatments were performed by submerging the transformed seedlings in water or SA solution at indicated concentrations for 2 hr. Entire cotyledons were sampled for microscopy.
Protein analysis and IP. Recombinant protein analysis was performed using transient expression in N. benthamiana, or stable over-expression in transgenic Arabidopsis, or expression in E. coli. Total protein extraction from plants was performed by homogenizing leaf tissue in the plant extraction buffer [50 mM Tris-HCl (pH 7.5), 150 mM NaCl, 5 mM EDTA, 0.2% Triton X-100, 0.2% Nonidet P-40] supplemented with 1 mM PMSF, 100 μM MG132, and EDTA-free protease inhibitor cocktail (Roche). For ubiquitinated protein analysis in plants, 100 μM of DUB (deubiquitinase) inhibitor (LifeSensors) and 10 mM NEM were added. Next, the lysates were cleared by centrifugation at 14,000 rpm for 15 min followed by filtering through a 0.2 μm filter. […] Pull-downs or IP experiments were done on total protein extracts by incubating protein samples in the lysis buffer overnight with indicated affinity tag or antibody conjugated to agarose or magnetic beads: GFP-trap agarose beads (Chromotek) for GFP fusions; RFP-trap agarose beads (Chromotek) for mCherry fusions; anti-HA magnetic beads (ThermoFisher) for HA tag fusions; anti-DYKDDDDK coupled magnetic agarose (ThermoFisher) for FLAG tag fusions; and glutathione magnetic agarose (ThermoFisher) for GST fusions. Unless otherwise indicated, after pull-down/IP, beads were washed 3 times and proteins were eluted by boiling in the 2×SDS sample buffer. […]

[2] = tested on: cytoplasmic condensates (SINCs); assay: Confocal imaging of localization and condensate (body) formation of GFP-fused NPR proteins and variants; format: cell-based, Nicotiana benthamiana; details: for SA-induced cytoplasmic body/condensate (SINC) formation: 5 mM SA for 2 hr
Experimental: as §1
Confocal laser scanning microscopy. Unless otherwise indicated, all imaging data and micrographs for single protein imaging, co-localizations, BiFC and time-lapse were obtained from the transient expression in N. benthamiana using the relevant Agrobacteria strains. All imaging was done with confocal laser scanning fluorescence microscopy using Zeiss 880 airyscan inverted confocal microscope with a 40×/1.2 water correction objective. GFP (eGFP) was excited with a 488 nm argon laser and emission was collected with a 505-530 nm band pass filter. YFP was excited with an argon laser using a 514 nm beam splitter, and emission was detected with a 520-555 nm band pass filter. mCherry was excited with a 561 nm diode laser, and emission was detected with a 575-615 nm band pass filter. When eGFP/YFP were imaged together with mCherry, a spectral GASP detector was used to collect emission from eGFP/YFP. Propidium iodide (PI) was excited with 488 nm argon laser and emission was detected with a 590-620 nm band pass filter. Time-lapse imaging was carried out on live leaf tissue samples from N. benthamiana plants transiently expressing the protein of interest. Image acquisition was done in 5 min intervals for the duration of 2 hr by scanning 30 consecutive focal planes along the Z-axis covering the entire thickness of an epidermal cell. Z-projection was done to each time frame stack before composing a final time-lapse file. […]

B1: BTB: BTB domain of NPR1 corresponding to amino acids 65-144 of SEQ ID NO: 1 (protein, listed as Arabidopsis thaliana)
chain: SDAKLVLSDGREVSFHRCVLSARSSFFKSALAAAKKEKDSNNTAAVKLELKEIAKDYEVGFDSVVTVLAYVYSSRVRPPP
With B1 the “CUL3 pull-down in co-IP in the absence of SA” value ([1]; absence of SA) was “sufficient to strongly pulldown CUL3 even in the absence of SA”.

B2: NPR2: Arabidopsis NPR1 paralog AtNPR2 (AT4G26120) (protein, UniProt Q9SZI3 1-600, looked up)
Regulatory protein NPR2: MATTTTTTTARFSDSYEFSNTSGNSFFAAESSLDYPTEFLTPPEVSALKLLSNCLESVFDSPETFYSDAKLVLAGGREVSFHRCILSARIPVFKSALATVKEQKSSTTVKLQLKEIARDYEVGFDSVVAVLAYVYSGRVRSPPKGASACVDDDCCHVACRSKVDFMVEVLYLSFVFQIQELVTLYERQFLEIVDKVVVEDILVIFKLDTLCGTTYKKLLDRCIEIIVKSDIELVSLEKSLPQHIFKQIIDIREALCLEPPKLERHVKNIYKALDSDDVELVKMLLLEGHTNLDEAYALHFAIAHCAVKTAYDLLELELADVNLRNPRGYTVLHVAAMRKEPKLIISLLMKGANILDTTLDGRTALVIVKRLTKADDYKTSTEDGTPSLKGGLCIEVLEHEQKLEYLSPIEASLSLPVTPEELRMRLLYYENRVALARLLFPVETETVQGIAKLEETCEFTASSLEPDHHIGEKRTSLDLNMAPFQIHEKHLSRLRALCKTVELGKRYFKRCSLDHFMDTEDLNHLASVEEDTPEKRLQKKQRYMELQETLMKTFSEDKEECGKSSTPKPTSAVRSNRKLSHRRLKVDKRDFLKRPYGNGD
B2 was tested, and the “SA-induced cytoplasmic body/condensate (SINC) formation” value (shortened to “SA-induced cytoplasmic body/condensate”) [2] was “fail to form cytoplasmic condensates”.

B3: nls: NPR1 point mutant with enhanced cytoplasmic localization, blocking nuclear function (protein)
chain: MDTTIDGFADSYEISSTSFVATDNTDSSIVYLAAEQVLTGPDVSALQLLSNSFESVFDSPDDFYSDAKLVLSDGREVSFHRCVLSARSSFFKSALAAAKKEKDSNNTAAVKLELKEIAKDYEVGFDSVVTVLAYVYSSRVRPPPKGVSECADENCCHVACRPAVDFMLEVLYLAFIFKIPELITLYQRHLLDVVDKVVIEDTLVILKLANICGKACMKLLDRCKEIIVKSNVDMVSLEKSLPEELVKEIIDRRKELGLEVPKVKKHVSNVHKALDSDDIELVKLLLKEDHTNLDDACALHFAVAYCNVKTATDLLKLDLADVNHRNPRGYTVLHVAAMRKEPQLILSLLEKGASASEATLEGRTALMIAKQATMAVECNNIPEQCKHSLKGRLCVEILEQEDKREQIPRDVPPSFAVAADELKMTLLDLENRVALAQRLFPTEAQAAMEIAEMKGTCEFIVTSLEPDRLTGTKRTSPGVKIAPFRILEEHQSRLKALSKTVELGKRFFPRCSAVLDQIMNCEDLTQLACGEDDTAEKRLQQQQGYMEIQETLQQAFSEDNLELGNSSLTDSTSSTSKSTGGKRSNRKLSHRRR
modifications: left off: small tags and cut ends
In the case of B3, the “CUL3 pull-down signal in co-IP” value ([1]; 1 mM SA for 5 hr) is reported as “significantly stronger CUL3 pull-down signals”.

B4: NPR3: Arabidopsis NPR1 paralog AtNPR3 (AT5G45110) (protein, UniProt Q8L746 1-586, looked up)
Regulatory protein NPR3: MATLTEPSSSLSFTSSHFSYGSIGSNHFSSSSASNPEVVSLTKLSSNLEQLLSNSDCDYSDAEIIVDGVPVGVHRCILAARSKFFQDLFKKEKKISKTEKPKYQLREMLPYGAVAHEAFLYFLSYIYTGRLKPFPLEVSTCVDPVCSHDCCRPAIDFVVQLMYASSVLQVPELVSSFQRRLCNFVEKTLVENVLPILMVAFNCKLTQLLDQCIERVARSDLYRFCIEKEVPPEVAEKIKQLRLISPQDEETSPKISEKLLERIGKILKALDSDDVELVKLLLTESDITLDQANGLHYSVVYSDPKVVAEILALDMGDVNYRNSRGYTVLHFAAMRREPSIIISLIDKGANASEFTSDGRSAVNILRRLTNPKDYHTKTAKGRESSKARLCIDILEREIRKNPMVLDTPMCSISMPEDLQMRLLYLEKRVGLAQLFFPTEAKVAMDIGNVEGTSEFTGLSPPSSGLTGNLSQVDLNETPHMQTQRLLTRMVALMKTVETGRRFFPYGSEVLDKYMAEYIDDDILDDFHFEKGSTHERRLKRMRYRELKDDVQKAYSKDKESKIARSCLSASSSPSSSSIRDDLHNTT
For B4, the “SA-induced cytoplasmic body/condensate” value [2] was “fail to form cytoplasmic condensates”.

B5: NPR4: Arabidopsis NPR1 paralog AtNPR4 (AT4G19660) (protein, UniProt Q5ICL9 1-574, looked up)
Regulatory protein NPR4: MAATAIEPSSSISFTSSHLSNPSPVVTTYHSAANLEELSSNLEQLLTNPDCDYTDAEIIIEEEANPVSVHRCVLAARSKFFLDLFKKDKDSSEKKPKYQMKDLLPYGNVGREAFLHFLSYIYTGRLKPFPIEVSTCVDSVCAHDSCKPAIDFAVELMYASFVFQIPDLVSSFQRKLRNYVEKSLVENVLPILLVAFHCDLTQLLDQCIERVARSDLDRFCIEKELPLEVLEKIKQLRVKSVNIPEVEDKSIERTGKVLKALDSDDVELVKLLLTESDITLDQANGLHYAVAYSDPKVVTQVLDLDMADVNFRNSRGYTVLHIAAMRREPTIIIPLIQKGANASDFTFDGRSAVNICRRLTRPKDYHTKTSRKEPSKYRLCIDILEREIRRNPLVSGDTPTCSHSMPEDLQMRLLYLEKRVGLAQLFFPAEANVAMDVANVEGTSECTGLLTPPPSNDTTENLGKVDLNETPYVQTKRMLTRMKALMKTVETGRRYFPSCYEVLDKYMDQYMDEEIPDMSYPEKGTVKERRQKRMRYNELKNDVKKAYSKDKVARSCLSSSSPASSLREALENPT
B5 was tested, and the “SA-induced cytoplasmic body/condensate” value [2] was “fail to form cytoplasmic condensates”.

B6: CTD: C-terminal domain (CTD) of NPR1 (protein)
chain: ALMIAKQATMAVECNNIPEQCKHSLKGRLCVEILEQEDKREQIPRDVPPSFAVAADELKMTLLDLENRVALAQRLFPTEAQAAMEIAEMKGTCEFIVTSLEPDRLTGTKRTSPGVKIAPFRILEEHQSRLKALSKTVELGKRFFPRCSAVLDQIMNCEDLTQLACGEDDTAEKRLQKKQRYMEIQETLKKAFSEDNLELGNSSLTDSTSSTSKSTGGKRSNRKLSHRRR
modifications: left off: large carriers
notes: C-terminal domain (CTD) of NPR1
For B6, the “competition with CUL3 for interaction with BTB” value ([1]; Myc-CUL3, BTB-HA and CTD-GFP co-expressed) was “outcompeted CUL3 for interaction with BTB”.

B7: NPR6: development-associated NPR1 paralog AtNPR6 (AT3G57130) (protein, UniProt Q9M1I7 1-467, looked up)
Regulatory protein NPR6: MSNTFEESLKSMSLDYLNLLINGQAFSDVTFSVEGRLVHAHRCILAARSLFFRKFFCESDPSQPGAEPANQTGSGARAAAVGGVIPVNSVGYEVFLLLLQFLYSGQVSIVPHKHEPRSNCGDRGCWHTHCTAAVDLSLDILAAARYFGVEQLALLTQKHLTSMVEKASIEDVMKVLIASRKQDMHQLWTTCSYLIAKSGLPQEILAKHLPIELVAKIEELRLKSSMPLRSLMPHHHDLTSTLDLEDQKIRRMRRALDSSDVELVKLMVMGEGLNLDESLALIYAVENCSREVVKALLELGAADVNYPAGPTGKTALHIAAEMVSPDMVAVLLDHHADPNVQTVDGITPLDILRTLTSDFLFKGAIPGLTHIEPNKLRLCLELVQSAALVISREEGNNNSNDNNTMIYPRMKDEHTSGSSLDSRLVYLNLGATNRDIGDDNSNQREGMNLHHHHHDPSTMYHHHHHHF
For B7, the “condensate formation in the absence of SA (constitutive)” value ([2]; no SA treatment / mock) was “constitutive bodies”.
